Publication doi:10.1101/2025.01.24.634737

Legend:
[1] = target: microtubules grown from purified bovine brain tubulin (bovine) (UniProt Q6B856); experiment: optical trap rupture force assay; untreated purified kinetochores on anti-penta-His beads (via Dsn1-6His-3M3DK), attached to the growing tips of coverslip-anchored microtubules; force ramp 0.25 pN/s until detachment; BRB80, 1 mM GTP, 23 °C
[2] = target: microtubules grown from purified bovine brain tubulin (bovine) (UniProt Q6B856); experiment: optical trap rupture force assay; kinetochores purified in the presence of benzonase, on anti-penta-His beads (via Dsn1-6His-3M3DK), attached to the growing tips of coverslip-anchored microtubules; force ramp 0.25 pN/s until detachment; BRB80, 1 mM GTP, 23 °C

Sequence of UniProt Q6B856 (Q6B856 whole entry, looked up): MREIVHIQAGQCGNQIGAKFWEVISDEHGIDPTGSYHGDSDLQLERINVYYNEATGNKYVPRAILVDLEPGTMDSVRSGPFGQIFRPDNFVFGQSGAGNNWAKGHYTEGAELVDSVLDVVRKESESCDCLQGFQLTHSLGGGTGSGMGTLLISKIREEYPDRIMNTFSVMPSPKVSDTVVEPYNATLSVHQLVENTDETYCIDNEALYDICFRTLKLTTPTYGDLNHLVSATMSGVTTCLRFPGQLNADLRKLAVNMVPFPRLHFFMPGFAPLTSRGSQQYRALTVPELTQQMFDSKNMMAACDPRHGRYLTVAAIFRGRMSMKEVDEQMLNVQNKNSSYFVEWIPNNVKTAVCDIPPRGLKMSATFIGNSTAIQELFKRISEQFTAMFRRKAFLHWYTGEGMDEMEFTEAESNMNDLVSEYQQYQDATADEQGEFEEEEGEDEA

median rupture force [1] | median rupture force [2] [pN] | Substance
7.5 pN | 6.4 | native K. marxianus kinetochore particles purified via Dsn1-6His-3M3DK (from UniProt A0ABX6F0Z3 1-547) (complex)
7.2 | – | native S. cerevisiae kinetochore particles purified via Dsn1-6xHis-3xM3DK (from UniProt P40568 1-576) (complex)
